Data as given in patent publication US20250163162A1 (SYNTHEKINE, published 2025).
Blank lines part the entries; values can stand above or below the binder they belong to.

Assays:
[1] = target: T1, hIL2Rg-Fc (SinoBiological cat#10555) (human, UniProt P31785 23-254, limits assumed); test: SPR (Biacore T200); ratio experimental/calculated Rmax
T1 construct: Bought Fc fusion (SinoBiological cat#10555); P31785 is printed for hCD132 in the background; also called human IL2Rg-Fc; not shown: Fc of the bought fusion protein
T1 sequence (looked up): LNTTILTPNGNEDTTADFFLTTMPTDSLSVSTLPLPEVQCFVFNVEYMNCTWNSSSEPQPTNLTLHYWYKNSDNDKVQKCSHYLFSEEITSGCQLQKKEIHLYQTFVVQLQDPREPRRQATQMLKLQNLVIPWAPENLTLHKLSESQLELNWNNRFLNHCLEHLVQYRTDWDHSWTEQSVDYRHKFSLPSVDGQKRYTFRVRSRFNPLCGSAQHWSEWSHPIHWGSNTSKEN

[2] = target: T2, cIL2Rg-Fc (lot#P210115SV5) (cynomolgus, UniProt A0A2K5VGJ6 23-262); test: as above
T2 construct: Named only by lot number; also called cynomolgus IL2Rg-Fc; not shown: Fc of the fusion protein
T2 sequence: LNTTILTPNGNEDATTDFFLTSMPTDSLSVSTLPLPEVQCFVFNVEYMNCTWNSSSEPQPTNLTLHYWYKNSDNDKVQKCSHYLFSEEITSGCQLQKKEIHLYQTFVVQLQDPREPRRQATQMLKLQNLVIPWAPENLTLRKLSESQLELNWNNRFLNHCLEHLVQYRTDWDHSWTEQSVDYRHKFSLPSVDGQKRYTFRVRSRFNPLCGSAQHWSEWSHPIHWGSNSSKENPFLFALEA

[3] = target: T1, hIL2Rg-Fc (SinoBiological cat#10555); test: SPR (Biacore T200), Fc-fused ligand captured on chip, dual VHH as analyte, 1:1 Langmuir fit
Description: (§1) All experiments were conducted in 10 mM Hepes, 150 mM NaCl, 0.05% (v/v) Polysorbate 20 (PS20) and 3 mM EDTA (HBS-EP+ buffer) on a Biacore T200 instrument equipped with Protein A or CAP biotin chips (Cytiva). For experiments on Protein A chips, Fc-fused ligands were flowed at 5 μl/min for variable time ranging from 18 to 300 seconds, reaching the capture loads listed in the tables below. Following ligand capture, injections of a 2-fold dilution series of analyte typically comprising at least five concentrations between 1 μM and 1 nM were performed in either high performance or single cycle kinetics mode. Surface regeneration was achieved by flowing 10 mM glycine-HCl, pH 1.5 (60 seconds, […]). Buffer-subtracted sensograms were processed with Biacore T200 Evaluation Software and globally fit with a 1:1 Langmuir binding model (bulk shift set to zero) to extract kinetics and affinity constants (kₐ, kd, KD). RMAX<100 RU indicates surface density compatible with kinetics analysis. Experiments on CAP chips were performed as described above with an additional capture step of Biotin CAPture reagent (10 seconds, 40 uL/min) performed prior to capture of biotinylated ligands. Calculated Rmax were generated using the equation Rmax=Load (RU) x valency of ligand x (Molecular weight of analyte/Molecular weight of ligand. Surface activity was defined as the ratio experimental/calculated Rmax. The results of these experiments are provided in below for sample information and experimental results.

[4] = target: T2, cIL2Rg-Fc (lot#P210115SV5); test: as above
Description: as §1

Surface Activity [1]: 5%
Surface Activity [2]: 1%
Kd [3]: 16.6 nM
koff [3]: 0.0057 s⁻¹
kon [3]: 340000 M⁻¹ s⁻¹
Kd [4]: 13.4 nM
koff [4]: 0.0048 s⁻¹
kon [4]: 360000 M⁻¹ s⁻¹
B1: DR471(DR241-DR231) (bispecific antibody)
chain: QVQLQESGGGSVQAGGSLRLSCAASGYSNCSYDMTWYRQAPGKEREFVSAIHSDGSTRYADSVKGRFFISQDNAKNTVYLQMNSLKPEDTAMYYCKTDPLHCRAHGGSWYSVRANYWGQGTQVTVSSGGGSQVQLQESGGGSVQAGGSLRLSCTASGFTFDDREMNWYRQAPGNECELVSTISSDGSTYYADSVKGRFTISQDNAKNTVYLQMDSVKPEDTAVYYCAADFMIAIQAPGAGCWGQGTQVTVSSASHHHHHH
notes: Anti-hIL10Ra/hIL2Rg dual VHH with ASH6 handle; also called G3

Surface Activity [1]: 5%
Surface Activity [2]: 7%
Kd [3]: 21.5 nM
koff [3]: 0.042 s⁻¹
kon [3]: 2e+06 M⁻¹ s⁻¹
Kd [4]: 41.3 nM
koff [4]: 0.0033 s⁻¹
kon [4]: 79000 M⁻¹ s⁻¹
B2: DR442(DR236-DR232) (bispecific antibody)
chain: QVQLQESGGGSVQAGGSLRLSCAASRFTYSSYCMGWFRQAPGKEREGVASIDSDGSTSYTDSVKGRFTISKDNAKNTLYLQMNSLKPEDTAMYYCALDLMSTVVPGFCGFLLSAGMDYWGKGTQVTVSSGGGSQVQLQESGGGSVQAGGSLRLSCVASGYTSCMGWFRQAPGKEREAVATIYTRGRSIYYADSVKGRFTISQDNAKNTLYLQMNSLKPEDIAMYSCAAGGYSWSAGCEFNYWGQGTQVTVSSASHHHHHH
notes: Anti-hIL10Ra/hIL2Rg dual VHH with ASH6 handle; also called F7
